# Reference: the MegaScale stability set (Tsuboyama et al. 2023)
# B1: EEHEE_rd4_0647 (parent)
# chain: MQVTWGNVTVTFSNPEEAKKYAEKVARKLGGQVELHNGQFRIK
# B2: EHEE_rd3_0053 (parent)
# chain: TYTFKVDNKDQAKKAAKWAKKLGLSFQIEKHGDTFKITVQ
# Variants of: B1
# Assay: folding stability dG (cDNA display proteolysis); higher = more stable
# Conditions: PBS, room temperature
row,Variant,folding stability dG [kcal/mol]
1,MQPTWGNVTVTFSNPEEAKKYAEKVARKLGGQVELHNGQFRIK [V3P],0.068
2,MQGTWGNVTVTFSNPEEAKKYAEKVARKLGGQVELHNGQFRIK [V3G],0.57
3,MQATWGNVTVTFSNPEEAKKYAEKVARKLGGQVELHNGQFRIK [V3A],0.626
4,MQTTWGNVTVTFSNPEEAKKYAEKVARKLGGQVELHNGQFRIK [V3T],0.641
5,MQETWGNVTVTFSNPEEAKKYAEKVARKLGGQVELHNGQFRIK [V3E],0.263
6,MQITWGNVTVTFSNPEEAKKYAEKVARKLGGQVELHNGQFRIK [V3I],1.61

# Variants of: B2
# Assay: as above
# Conditions: PBS, room temperature
row,Variant,folding stability dG [kcal/mol]
1,TYTFKVDNKDQAKKAAKWAKKLGLSFQIEKHGDTFKITVP [Q40P],1.14
2,TYTFKVDNKDQAKKAAKWAKKLGLSFQIEKHGDTFKITVN [Q40N],2.4
3,TYTFKVDNKDQAKKAAKWAKKLGLSFQIEKHGDTFKITVW [Q40W],3.28
4,TYTFKVDNKDQAKKAAKWAKKLGLSFQIEKHGDTFKITVH [Q40H],2.56
5,TYTFKVDNKDQAKKAAKWAKKLGLSFQIEKHGDTFKITVI [Q40I],2.49
6,TYTFKVDNKDQAKKAAKWAKKLGLSFQIEKHGDTFKITVS [Q40S],2.77
7,TYTFKVDNKDQAKKAAKWAKKLGLSFQIEKHGDTFKITVT [Q40T],2.62
8,TYTFKVDNKDQAKKAAKWAKKLGLSFQIEKHGDTFKITVD [Q40D],1.98
9,TYTFKVDNKDQAKKAAKWAKKLGLSFQIEKHGDTFKITVF [Q40F],3.05
10,TYTFKVDNKDQAKKAAKWAKKLGLSFQIEKHGDTFKITVR [Q40R],2.59
11,TYTFKVDNKDQAKKAAKWAKKLGLSFQIEKHGDTFKITVE [Q40E],2.19
12,TYTFKVDNKDQAKKAAKWAKKLGLSFQIEKHGDTFKITVG [Q40G],2.55
13,TYTFKVDNKDQAKKAAKWAKKLGLSFQIEKHGDTFKITVC [Q40C],2.75
14,TYTFKVDNKDQAKKAAKWAKKLGLSFQIEKHGDTFKITVM [Q40M],2.6
15,TYTFKVDNKDQAKKAAKWAKKLGLSFQIEKHGDTFKITVK [Q40K],2.45
16,TYTFKVDNKDQAKKAAKWAKKLGLSFQIEKHGDTFKITVV [Q40V],2.41
17,TYTFKVDNKDQAKKAAKWAKKLGLSFQIEKHGDTFKITVL [Q40L],2.41
18,TYTFKVDNKDQAKKAAKWAKKLGLSFQIEKHGDTFKITVY [Q40Y],3
19,TYTFKVDNKDQAKKAAKWAKKLGLSFQIEKHGDTFKITVA [Q40A],2.46
20,TYTFKVDNKDQAKKAAKWAKKLGLSFQIEKHGDTFKIMVQ [T38M],1.83
21,TYTFKVDNKDQAKKAAKWAKKLGLSFQIEKHGDTFKIIVQ [T38I],2.34
22,TYTFKVDNKDQAKKAAKWAKKLGLSFQIEKHGDTFKIYVQ [T38Y],1.77
23,TYTFKVDNKDQAKKAAKWAKKLGLSFQIEKHGDTFKIRVQ [T38R],1.72
24,TYTFKVDNKDQAKKAAKWAKKLGLSFQIEKHGDTFKIKVQ [T38K],1.65
25,TYTFKVDNKDQAKKAAKWAKKLGLSFQIEKHGDTFKILVQ [T38L],1.78
26,TYTFKVDNKDQAKKAAKWAKKLGLSFQIEKHGDTFKIDVQ [T38D],0.562
27,TYTFKVDNKDQAKKAAKWAKKLGLSFQIEKHGDTFKIVVQ [T38V],2.01
28,TYTFKVDNKDQAKKAAKWAKKLGLSFQIEKHGDTFKINVQ [T38N],1.09

row,Variant,folding stability dG [kcal/mol]
1,TYTFKVDNKDQAKKAAKWAKKLGLSFQIEKHGDTFKIQVQ [T38Q],1.57
2,TYTFKVDNKDQAKKAAKWAKKLGLSFQIEKHGDTFKIFVQ [T38F],1.71
3,TYTFKVDNKDQAKKAAKWAKKLGLSFQIEKHGDTFKIEVQ [T38E],1.1
4,TYTFKVDNKDQAKKAAKWAKKLGLSFQIEKHGDTFKIWVQ [T38W],1.76
5,TYTFKVDNKDQAKKAAKWAKKLGLSFQIEKHGDTFKIAVQ [T38A],1.3
6,TYTFKVDNKDQAKKAAKWAKKLGLSFQIEKHGDTFKIHVQ [T38H],1.8
7,TYTFKVDNKDQAKKAAKWAKKLGLSFQIEKHGDTFKIGVQ [T38G],0.192
8,TYTFKVDNKDQAKKAAKWAKKLGLSFQIEKHGDTFKISVQ [T38S],1.81
9,TYTFKVDNKDQAKKAAKWAKKLGLSFQIEKHGDTFKITIQ [V39I],2.82
10,TYTFKVDNKDQAKKAAKWAKKLGLSFQIEKHGDTFKITNQ [V39N],-0.981
11,TYTFKVDNKDQAKKAAKWAKKLGLSFQIEKHGDTFKITRQ [V39R],-0.567
12,TYTFKVDNKDQAKKAAKWAKKLGLSFQIEKHGDTFKITHQ [V39H],-0.097
13,TYTFKVDNKDQAKKAAKWAKKLGLSFQIEKHGDTFKITLQ [V39L],2.23
14,TYTFKVDNKDQAKKAAKWAKKLGLSFQIEKHGDTFKITCQ [V39C],1.68
15,TYTFKVDNKDQAKKAAKWAKKLGLSFQIEKHGDTFKITYQ [V39Y],1.68
16,TYTFKVDNKDQAKKAAKWAKKLGLSFQIEKHGDTFKITSQ [V39S],-0.061
17,TYTFKVDNKDQAKKAAKWAKKLGLSFQIEKHGDTFKITGQ [V39G],-0.471
18,TYTFKVDNKDQAKKAAKWAKKLGLSFQIEKHGDTFKITTQ [V39T],0.975
19,TYTFKVDNKDQAKKAAKWAKKLGLSFQIEKHGDTFKITWQ [V39W],1.56
20,TYTFKVDNKDQAKKAAKWAKKLGLSFQIEKHGDTFKITMQ [V39M],1.86
21,TYTFKVDNKDQAKKAAKWAKKLGLSFQIEKHGDTFKITFQ [V39F],2.06
22,TYTFKVDNKDQAKKAAKWAKKLGLSFQIEKHGDTFKITQQ [V39Q],-0.762
23,TYTFKVDNKDQAKKAAKWAKKLGLSFQIEKHGDTFKITAQ [V39A],0.718
24,TYTFKVDNKDQAKKAAKWAKKLGLSFQIEKHGDTFKITPQ [V39P],-0.963
25,TYTFKVDNKDQAKKAAKWAKKLGLSFQIEKHGDTFKITDQ [V39D],-0.839
26,TYTFKVDNKDQAKKAAKWAKKLGLSFQIEKHGDTFKWTVQ [I37W],0.115
27,TYTFKVDNKDQAKKAAKWAKKLGLSFQIEKHGDTFKYTVQ [I37Y],0.365
